Where two headings read alike, the source gives them in different places.
What was measured:
[1] = biological target: human Mcl-1 ΔPESTΔTM (human); test: NMR titration
[2] = biological target: human Mcl-1 ΔPESTΔTM (human); test: NMR titration; remark: listed apart in the source
[3] = biological target: human Mcl-1 ΔPESTΔTM (human); test: SEC + other: SAXS

Mule BH3 peptide (MuleBH3) gave a relative population of Mcl-1 bound, in the mix of three peptides [1] of 55%.

B1: TCTP BH3-like peptide D16I mutant (TCTP_(BH3D16I)) (peptide)
peptide: DEMFSIIYKIREIADGLCLEVE
Molecule B1 has a relative population of Mcl-1 bound, in the mix of three peptides [2] of 45%.

B2: full length human TCTP (Translationally Controlled Tumour Protein) (natural protein)
chain: MIIYRDLISHDEMFSDIYKIREIADGLCLEVEGKMVSRTEGNIDDSLIGGNASAEGPEGEGTESTVITGVDIVMNHHLQETSFTKEAYKKYIKDYMKSIKGKLEEQRPERVKPFMTGAAEQIKHILANFKNYQFFIGENMNPDGMVALLDYREDGVTPYMIFFKDGLEMEKC
B2 showed a stoichiometry N [3] of 1.

B3: TCTP BH3-like peptide (TCTPBH3) (peptide)
peptide: DEMFSDIYKIREIADGLCLEVE
B3 was tested, and the Kd [2] was 7.9 µM and the fold weaker relative affinity than TCTPBH3D16I and MuleBH3 [2] was > 10 fold.

Reference: publication doi:10.1101/2022.11.05.515280
